The values below come from the supplement of paper PMC10567573.

± gives the standard deviation.

The data set can be described thus: protein stability index of a GFP-peptide fusion (GPS, HEK-293T) (PSI 1-6); higher = more stable.
Setting [1] is: treatment: DMSO, c terminus: a fixed tail appended.
Where [2] appears, read: treatment: MLN4924 1 uM, 8 h, c terminus: a fixed tail appended.
The mark [3] stands for this setting: treatment: DMSO, c terminus: native.
[4] abbreviates: treatment: MLN4924 1 uM, 8 h, c terminus: native.
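Also: 24-mer peptide tiles fused after GFP, lentivirally expressed, FACS-sorted into six equal bins by GFP/DsRed ratio, decoded by Illumina sequencing, PSI is the read-weighted mean bin number.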

DLPPPPADPVLDLPLPPPPPEPLS [APBB1IP]: the protein stability index under setting [1] is 5.39 ± 0.3 and the protein stability index under setting [2] was 5.33 ± 0.18. The corresponding values for YHRETEGEEQAQLLHVSSPNLASD [KCNA1] are 5.16 ± 0.3 and 5.21 ± 0.27.

Regarding EKEMQKMNPYKIDIGAVYSHRPNQ [PRIM1], the protein stability index is, setting by setting: under setting [1], 3.64 ± 0.43; under setting [2], 3.44 ± 0.32. Consider GPLVPRLAGMANHGSPQLGEGMFQ [TBX5], for which the protein stability index by setting is: under setting [1], 3.67 ± 0.26; under setting [2], 3.75 ± 0.15.

As to SHRSNLIRHQRIHTGEKPYTCHEC [ZNF263], the protein stability index under setting [1] was 3.16 ± 0.26 and the protein stability index under setting [2] was 3.49 ± 0.23. Regarding LKVRYRERITILRGNHESRQITQV [PPP2CA], the protein stability index reads like this: under setting [1], 2.37 ± 0.19; under setting [2], 2.42 ± 0.32. Taken in the same sequence, the figures for DNLLAAADKYALERLKVMCEEALC [SPOPL] were 2.75 ± 0.32 and 2.78 ± 0.15. In the case of KSVLIPVYGVSKETFLSFLEYLYT [RHOBTB3], the protein stability index by setting is: under setting [1], 2.24 ± 0.38; under setting [2], 2.22 ± 0.15. On to TARRLLSQVRALDRFQVPTTEVNA [NFE2L1], for which the protein stability index under setting [1] came out at 3.02 ± 0.07. ELLTCHSAEYVGHLRATEKMKTRE [HDAC6]: the protein stability index under setting [1] worked out at 3.82 ± 0.1. With LSTKKSPCAGSTSLSHSPGCSSTQ [LCOR], the protein stability index turned out to be 4.35 ± 0.22 under setting [1] and 4.27 ± 0.12 under setting [2]. Turning to CYVGATVLRGRLYAIAGYDGNSLL [KLHL12], the protein stability index under setting [1] stood at 3.2 ± 0.34 and the protein stability index under setting [2] is 2.57 ± 0.68.

QWLQSTSGSQRHMVGQKDSVILSV [TLE6]: the protein stability index was 2.12 ± 0.093 under setting [1] and 2.29 ± 0.27 under setting [2]. For VEMESEEQIAERKRKMVSWEASSL [KMT2E], the protein stability index by setting is: under setting [1], 3.67 ± 0.22; under setting [2], 3.87 ± 0.73. In the case of AAETASLEEQLQGWGEVMLMADKV [ARL6IP1], the protein stability index is, setting by setting: under setting [1], 4.53 ± 0.082; under setting [2], 4.45 ± 0.19. Taken in the same sequence, the figures for YENCLQALADVEVKYIVERTMLDF [NLN] were 2.08 ± 0.28 and 2.22 ± 0.51.

Turning to AQPQGAPCCSSSPEEPLNGESYES [FEM1A], the protein stability index turned out to be 5.41 ± 0.19 under setting [1] and 5.53 ± 0.2 under setting [2]. On to CKGRDHGVLDALHVLEGLFRTDPE [ZSWIM9], for which the protein stability index was determined as 2.8 ± 0.05 under setting [1] and 2.81 ± 0.26 under setting [2].

Regarding LSIQLQPKETQPFPKSEQVYLHFL [ZNF232], the protein stability index is 2.4 ± 0.25 under setting [1] and 2.52 ± 0.35 under setting [2].

As to PSLRPRPASSISLPIGHLGCISLL [DMRTC1], the protein stability index is 2.55 ± 0.35 under setting [1] and 2.85 ± 0.43 under setting [2]. The corresponding values for MNKGDTEVMKCIVEVISDTLSKPS [CHGA] are 2.84 ± 0.3 and 2.86 ± 0.31.

As for TLLSVLKREAGNLTKATAPDQKSS [SSNA1], the protein stability index under setting [1] was found to be 2.69 ± 0.13 and the protein stability index under setting [2] stood at 2.83 ± 0.3. NYGKILVEKNEHCIENNIDLQVNR [R3HDM1]: the protein stability index worked out at 3.56 ± 0.33 under setting [1] and 3.75 ± 0.19 under setting [2]. For the sequence LHCWLNAFAEMLRFGDRMFYKDWW [SOAT1], the protein stability index is 2.97 ± 0.3 under setting [1] and 2.77 ± 0.6 under setting [2]. Taken in the same sequence, the figures for EEDSILIIPTPDEEEKILRVKLEE [ZNF24] were 5.03 ± 0.14 and 5 ± 0.31. As to KCKSTLSPPEASPGPPAAPRARRR [PWWP2B], the protein stability index under setting [1] was found to be 5.19 ± 0.12 and the protein stability index under setting [2] was 5.34 ± 0.26.

On to RSERKKWIHCFEGVTAIIFCVALS [GNAI1], for which the protein stability index runs as follows: under setting [1], 3.21 ± 0.4; under setting [2], 2.89 ± 0.8.

With HHSHSGPEISRIIVDPTTGKRYCR [PLK2], the protein stability index is, setting by setting: under setting [1], 4.08 ± 0.16; under setting [2], 4.32 ± 0.17. On to AAAAAAASAAAATAAFTTAKAAAL [SPAG8], for which the protein stability index was found to be 2.33 ± 0.26 under setting [1] and 2.62 ± 0.75 under setting [2]. Consider AVQRFCLIGSLSKHESEYNTTRV [NETO1], for which the protein stability index amounted to 2.85 ± 1.1 under setting [3] and 2.48 ± 0.6 under setting [4].

As to ASSNVFSNFEQTQIQEFKEAFTLM [MYL5], the protein stability index reads like this: under setting [1], 3.49 ± 0.18; under setting [2], 3.42 ± 0.27. Taken in the same sequence, the figures for KNRSFDIDAIYSVIDDAKQYVYIA [PLD5] were 2.75 ± 0.55 and 2.47 ± 0.71. Regarding IQWKNHDQNNHNTDRSSHKDSMN [EDNRA], the protein stability index worked out at 5.36 ± 0.29 under setting [3] and 5.49 ± 0.23 under setting [4]. Consider TNLKETYRCIREARYTMPSSLLAP [PLK2], for which the protein stability index by setting is: under setting [1], 2.34 ± 0.54; under setting [2], 2.3 ± 0.08. As to KVRQLERDNAELEKLIQERSQQQE [KRT34], the protein stability index by setting is: under setting [1], 5.17 ± 0.22; under setting [2], 5.28 ± 0.24. For KSMHREELEKSGHGQAGQRQDPRP [ZBED2], the protein stability index is, setting by setting: under setting [1], 5.21 ± 0.13; under setting [2], 5.2 ± 0.3. Regarding FSQKHFPEVVQHEEFILLSQGEVE [KLHL12], the protein stability index under setting [1] came to 3.44 ± 0.81 and the protein stability index under setting [2] was 3.45 ± 0.33. The sequence QIDAVGSKLKMLERKGWLAPSPGV [PKD2L1] returned a protein stability index under setting [1] of 3 ± 0.45 and a protein stability index under setting [2] of 3.17 ± 0.22. Regarding MWPPDPDPDPDPEPAGGSRPGPAV [CMTM3], the protein stability index was 5.02 ± 0.062 under setting [1] and 5.124 ± 0.016 under setting [2]. Turning to VVKLENGEIETIARFGSGPCKTRD [APMAP], the protein stability index is, setting by setting: under setting [1], 3.77 ± 0.16; under setting [2], 3.72 ± 0.31. VEEILDRENKRMADSLASKVTRLK [BET1L]: the protein stability index by setting is: under setting [1], 4.31 ± 0.4; under setting [2], 4.52 ± 0.23.

Turning to GGVGYGDSKDCILEPLSLPESPGG [ZNF277], the protein stability index under setting [1] stood at 4.43 ± 0.37 and the protein stability index under setting [2] amounted to 4.98 ± 0.19. For YQRNLPRPGQAPIGNPPVGPIGGM [ZNF207], the protein stability index runs as follows: under setting [1], 2.87 ± 0.32; under setting [2], 3.31 ± 0.41. For the sequence ATTSASDSLKPEQLDIEEEGRPGA [TFE3], the protein stability index is, setting by setting: under setting [1], 5.5 ± 0.23; under setting [2], 5.35 ± 0.12. Consider EGHQAWIVGIVEKGNRTARIIDKP [SEPHS2], for which the protein stability index is, setting by setting: under setting [1], 1.95 ± 0.24; under setting [2], 2.42 ± 0.43. Regarding SVWQHIDCMGIDRQHIPDTYLCER [KMT2E], the protein stability index stood at 2.83 ± 0.2 under setting [1] and 2.81 ± 0.4 under setting [2].

Consider SPLHLVQMPPVIVETARSHQRSSS [PI4K2A], for which the protein stability index runs as follows: under setting [1], 4.22 ± 0.18; under setting [2], 4.24 ± 0.2.

Consider SSSVETGPSVSEPPGLPRVSAYVD [SPATS1], for which the protein stability index by setting is: under setting [1], 4.77 ± 0.35; under setting [2], 4.72 ± 0.21. As for VEKLKQMQEFFGLKVTGKPDAETL [MMP1], the protein stability index is 3.63 ± 0.23 under setting [1] and 3.83 ± 0.16 under setting [2]. For DRAVNDYPSLYYPEMYILKGGYKE [CDC25B], the protein stability index is, setting by setting: under setting [1], 2.67 ± 0.25; under setting [2], 2.85 ± 0.46. In turn, SEYRSDIINAKSNDGWTPLHVAAH [ASB7] came in with a protein stability index under setting [1] of 3.19 ± 0.38 and a protein stability index under setting [2] of 3.27 ± 0.11. As to PIEVVTEGLLNTYQELLGLSFEQM [NLN], the protein stability index is, setting by setting: under setting [1], 2.13 ± 0.37; under setting [2], 2.29 ± 0.38. As for GLQLPSTLPVSGNLLDVYSSQGVA [TFE3], the protein stability index came out at 3.15 ± 0.53 under setting [1] and 3.4 ± 0.36 under setting [2]. Turning to ENVLHFKAQGHGAKGDNVYEFHLE [HACD3], the protein stability index reads like this: under setting [1], 3.57 ± 0.3; under setting [2], 3.79 ± 0.17. The corresponding values for ALVQEKIQKRNQRQSGDRRQLPPP [WAS] are 4.31 ± 0.24 and 4.59 ± 0.086.

Turning to LGLVGYYIFRVANHQKDLFRRTDG [DHCR7], the protein stability index turned out to be 2.45 ± 0.2 under setting [1] and 2.6 ± 0.31 under setting [2]. On to TLNVIELNVQKTVDYTGQAKAQVR [STX11], for which the protein stability index reads like this: under setting [1], 2.93 ± 0.28; under setting [2], 3.19 ± 0.31.

On to RPAFVRVRRGHSHLAPSEAKAADS, for which the protein stability index turned out to be 4.35 ± 0.1 under setting [1] and 4.45 ± 0.16 under setting [2]. Taken in the same sequence, the figures for NHMYSCRFSRQCVVDKDKRNQCRY [HNF4A] were 2.61 ± 0.057 and 2.56 ± 0.074. In the case of GMANGQQWLQSTSGSQRHMVGQKD [TLE6], the protein stability index reads like this: under setting [1], 4.49 ± 0.17; under setting [2], 4.47 ± 0.29.

Turning to VKKSCWTEEEDRIICEAHKVLGNR [MYBL2], the protein stability index turned out to be 3.33 ± 0.52 under setting [1] and 3.58 ± 0.34 under setting [2]. The corresponding values for HALATRASDYSKKSNVLKLKTADW [PSD2] are 3.13 ± 0.18 and 3.17 ± 0.17.

As to RRGSTPLHMAVERRVRGVVELLLA [RIPK4], the protein stability index came out at 2.9 ± 0.085 under setting [1] and 2.67 ± 0.045 under setting [2].

Consider CFNRSREYQLNDSAAYYLNDLDRI [GNAI1], for which the protein stability index by setting is: under setting [1], 2.51 ± 0.25; under setting [2], 2.46 ± 0.23. As for MGQVLPVFAHCKEAPSTASSTPDS [RTN2], the protein stability index amounted to 4.67 ± 0.25 under setting [1] and 4.83 ± 0.23 under setting [2]. For the sequence ERSQEESPPGSTKRRKSMSGASPK [CDC25A], the protein stability index reads like this: under setting [1], 5.48 ± 0.19; under setting [2], 5.46 ± 0.12. AAAQSYPGYLPYSPEPPSLYGALN [IRX6]: the protein stability index worked out at 2.68 ± 0.077 under setting [1] and 2.87 ± 0.2 under setting [2].

As for MPPQPGIPQQQGMRPPMPPHGQYG [ZNF207], the protein stability index runs as follows: under setting [1], 4.31 ± 0.2; under setting [2], 4.43 ± 0.11. The corresponding values for PLPHPGAAPWPMAFPYQYPPPPHP [DVL3] are 3.15 ± 0.28 and 3.41 ± 0.13. Regarding SMEGVRWAFSCGTWLPSRAEWLLA [AASDHPPT], the protein stability index is 2.65 ± 0.57 under setting [1] and 2.79 ± 0.52 under setting [2]. For LGPSLEDLFDLCDRTFTLKTVLMI [CSNK1G1], the protein stability index under setting [1] was determined as 2.69 ± 0.82 and the protein stability index under setting [2] came to 2.56 ± 0.9. For the sequence TRGWVQTLARMSRRTRGPVERAAA [C6orf223], the protein stability index reads like this: under setting [1], 3.23 ± 0.22; under setting [2], 3.57 ± 0.098. The corresponding values for HCKAGLGRTGTLIACYVMKHYRFT [CDC14A] are 3.52 ± 0.52 and 2.76 ± 0.37.
